According to article PMC10071043, “Cryo-EM structure of the RuvAB-Holliday junction intermediate complex from Pseudomonas aeruginosa” (Frontiers in Plant Science, 2023):

T1: PaRuvA (Pseudomonas aeruginosa, UniProt Q51425 1-201)
T1 sequence: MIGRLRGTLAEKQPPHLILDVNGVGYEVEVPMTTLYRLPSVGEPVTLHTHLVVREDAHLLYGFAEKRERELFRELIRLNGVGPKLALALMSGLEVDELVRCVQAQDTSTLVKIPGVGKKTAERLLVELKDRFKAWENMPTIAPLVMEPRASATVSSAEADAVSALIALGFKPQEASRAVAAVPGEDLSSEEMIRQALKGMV

B1: Pseudomonas aeruginosa RuvB (enzyme, UniProt Q51426 1-352, looked up)
chain: MIEPDRLISAVSGRERDEQLDRAIRPLKLADYIGQPSVREQMELFIHAARGRQEALDHTLIFGPPGLGKTTLANIIAQEMGVSIKSTSGPVLERPGDLAALLTNLEAGDVLFVDEIHRLSPIVEEVLYPAMEDFQLDIMIGEGPAARSIKLDLPPFTLVGATTRAGMLTNPLRDRFGIVQRLEFYNVEDLATIVSRSAGILGLEIEPQGAAEIAKRARGTPRIANRLLRRVRDFAEVRGQGDITRVIADKALNLLDVDERGFDHLDRRLLLTMIDKFDGGPVGIDNLAAALSEERHTIEDVLEPYLIQQGYIMRTPRGRVVTRHAYLHFGLNIPKRLGPGVTTDLFTSEDGN
notes: RuvB, AAA+ ATPase motor protein of Pseudomonas aeruginosa; cDNA synthesised (GenBank ID 882028); domains N, M and C; In the cryo-EM complex eight RuvB subunits form two open rings of four; only one ring is modelled; GST removed with PreScission protease; also called PaRuvB; source: E. coli BL21 (DE3), purified (GST Sepharose, Source 15Q, Superdex 200); not shown: GST, N-terminal, cleaved
B2: Pseudomonas aeruginosa RuvA (natural protein, UniProt Q51425 1-201, looked up)
chain: T1 sequence
notes: cDNA synthesised (GenBank ID 879609); domains D1, D2 and D3; In the cryo-EM complex eight RuvA subunits (two tetramers) sandwich one Holliday junction DNA; GST removed with PreScission protease; also called PaRuvA; source: E. coli Rosetta (DE3), purified (GST Sepharose, Source 15Q, Superdex 200); not shown: GST, N-terminal, cleaved
B3: HJ2 (HJ2-A/B/C/D) (structured_DNA)
DNA 1: CACTGTGATGCACGATGATAGAACACAGTACTCAGTGCTGCAGTGCTCAGGTGTG
DNA 2: ATACAGATGTAGAGCCAGCACTGAGTACTGTGTTCTATCATCGTGCATCACAGTG
DNA 3: CACTGTGATGGCATGTATCCGAACACAGTACTCAGTGCTGGCTCTACATCTGTAT
DNA 4: CACACCTGAGCACTGCAGCACTGAGTACTGTGTTCGGATACATGCCATCACAGTG

Columns and labels:
[1] = target: the molecule itself; assay: cryo-EM structure; HJ DNA (HJ2) pre-incubated with RuvA at 4°C for 15 min, then with RuvB for 15 min, RuvA:RuvB:HJ = 8:16:1.2; 50 mM NaCl, 20 mM HEPES pH 7.4, 1 mM ATPγS, 10 mM MgCl2, 1 mM DTT; complex purified on Superose 6
[2] = target: B1; assay: as above; conditions: both partners purified
PaRuvA = target: T1, PaRuvA; assay: cryo-EM; RuvA-HJ core region of the RuvAB-HJ complex, 3.0 A; PDB assigned from residue and nucleotide counts; binding buffer for cryo-EM not given in material; proteins in 20 mM HEPES pH 7.4, 200 mM NaCl, 15 mM reduced glutathione, 1 mM DTT; DNA annealed in 100 mM HEPES pH 7.4, 50 mM NaCl; conditions: protein: recombinant; tags: GST tag removed (PreScission); chain copies: 8; four-way Holliday junction of 4 strands; A/B and C/D annealed first, then mixed
PaRuvB = PaRuvB (Pseudomonas aeruginosa, UniProt Q51426 1-352); assay: cryo-EM; RuvB ring on one HJ arm duplex in the RuvAB-HJ complex; RuvB1 and RuvB2 contact DNA via C-terminal beta-hairpins, RuvB3 and RuvB4 DNA-free; PDB assigned from residue and nucleotide counts; binding buffer for cryo-EM not given in material; proteins in 20 mM HEPES pH 7.4, 200 mM NaCl, 15 mM reduced glutathione, 1 mM DTT; DNA annealed in 100 mM HEPES pH 7.4, 50 mM NaCl; conditions: protein: recombinant; tags: GST tag removed (PreScission); chain copies: 8; four-way Holliday junction of 4 strands; A/B and C/D annealed first, then mixed
PaRuvA;PaRuvB = PaRuvA;PaRuvB (Pseudomonas aeruginosa;Pseudomonas …, UniProt Q51425;Q51426 1-201;1-352, |); assay: cryo-EM; RuvAB-HJ intermediate complex; PDB assigned from residue and nucleotide counts; binding buffer for cryo-EM not given in material; proteins in 20 mM HEPES pH 7.4, 200 mM NaCl, 15 mM reduced glutathione, 1 mM DTT; DNA annealed in 100 mM HEPES pH 7.4, 50 mM NaCl; conditions: protein: recombinant;recombinant; tags: GST tag removed (PreScission);GST tag removed (PreScission); chain copies: 8;8; four-way Holliday junction of 4 strands; A/B and C/D annealed first, then mixed

Binder | stoichiometry N [1] | binding result [2] | binding result (PaRuvA) | binding result (PaRuvB) | binding result (PaRuvA;PaRuvB)
B1 | 4 | – | – | – | –
B2 | 8 | binds | – | – | –
B3 | – | – | binds | binds | binds
